# Publication PMC6469509
# B1: HSV-60 dsDNA (dsDNA)
# DNA 1: TAAGACACGATGCGATAAAATCTGTTTGTAAAATTTATTAAGGGTACAAATTGCCCTAGC
# DNA 2: GCTAGGGCAATTTGTACCCTTAATAAATTTTACAAACAGATTTTATCGCATCGTGTCTTA
# B2: HSV-15 dsDNA (dsDNA)
# DNA 1: TAAGACACGATGCGA
# DNA 2: TCGCATCGTGTCTTA
# B3: HSV-60 ssDNA (ssDNA)
# DNA: B1 DNA 1
# B4: HSV-60 DNA-RNA hybrid (DNA:RNA)
# DNA: B1 DNA 1
# RNA: GCUAGGGCAAUUUGUACCCUUAAUAAAUUUUACAAACAGAUUUUAUCGCAUCGUGUCUUA
# B5: HSV-60 dsRNA (dsRNA)
# RNA 1: UAAGACACGAUGCGAUAAAAUCUGUUUGUAAAAUUUAUUAAGGGUACAAAUUGCCCUAGC
# RNA 2: B4 RNA
# B6: HSV-60 dsDNA unlabelled (dsDNA)
# DNA 1: B1 DNA 1
# DNA 2: B1 DNA 2
# Experiments:
# NLRC3 FL recombinant [1] = target: T1, NLRC3 FL recombinant (human, UniProt Q7RTR2 1-1065); test: SPR
# T1 sequence: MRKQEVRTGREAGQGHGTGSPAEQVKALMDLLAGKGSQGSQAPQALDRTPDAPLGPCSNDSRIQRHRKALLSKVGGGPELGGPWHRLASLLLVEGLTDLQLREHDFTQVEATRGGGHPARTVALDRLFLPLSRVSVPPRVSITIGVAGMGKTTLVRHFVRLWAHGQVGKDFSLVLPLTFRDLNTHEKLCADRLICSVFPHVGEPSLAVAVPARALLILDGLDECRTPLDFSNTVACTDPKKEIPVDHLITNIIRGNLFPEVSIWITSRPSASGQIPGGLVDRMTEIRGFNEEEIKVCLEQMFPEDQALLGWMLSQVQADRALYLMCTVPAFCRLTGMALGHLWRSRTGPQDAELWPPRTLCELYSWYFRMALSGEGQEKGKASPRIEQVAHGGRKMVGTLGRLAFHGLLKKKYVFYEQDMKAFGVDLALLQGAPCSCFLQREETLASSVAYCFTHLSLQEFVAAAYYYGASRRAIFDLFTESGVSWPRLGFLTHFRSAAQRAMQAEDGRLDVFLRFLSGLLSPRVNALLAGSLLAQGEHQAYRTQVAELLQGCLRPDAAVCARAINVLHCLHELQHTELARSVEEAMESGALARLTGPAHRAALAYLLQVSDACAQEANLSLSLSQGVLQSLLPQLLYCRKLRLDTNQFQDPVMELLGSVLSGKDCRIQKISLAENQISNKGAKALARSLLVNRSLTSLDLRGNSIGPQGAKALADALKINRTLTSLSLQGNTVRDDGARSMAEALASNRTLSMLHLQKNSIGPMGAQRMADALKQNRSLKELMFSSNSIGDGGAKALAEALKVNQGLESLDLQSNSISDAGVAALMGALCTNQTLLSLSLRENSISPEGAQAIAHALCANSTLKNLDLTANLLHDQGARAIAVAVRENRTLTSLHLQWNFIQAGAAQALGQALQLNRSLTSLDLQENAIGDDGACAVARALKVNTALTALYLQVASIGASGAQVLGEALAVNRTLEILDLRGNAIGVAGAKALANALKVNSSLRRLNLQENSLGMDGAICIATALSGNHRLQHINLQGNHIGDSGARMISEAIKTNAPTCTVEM
# STING 155-341 [2] = target: T2, STING 155-341 (human, UniProt Q86WV6 155-341); test: SPR
# NLRC3 NBD recombinant = target: T3, NLRC3 NBD recombinant (human, UniProt Q7RTR2 139-460); test: pull-down
# T3 sequence: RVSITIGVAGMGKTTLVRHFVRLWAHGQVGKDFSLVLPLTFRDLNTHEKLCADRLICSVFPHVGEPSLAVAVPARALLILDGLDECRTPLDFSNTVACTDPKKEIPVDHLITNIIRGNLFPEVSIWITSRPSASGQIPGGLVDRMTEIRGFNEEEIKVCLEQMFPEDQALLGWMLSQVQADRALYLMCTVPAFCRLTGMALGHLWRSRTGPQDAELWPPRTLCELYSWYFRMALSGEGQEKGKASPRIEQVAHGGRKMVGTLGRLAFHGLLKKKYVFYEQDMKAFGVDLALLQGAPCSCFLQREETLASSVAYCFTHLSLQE
# cGAS FL recombinant = cGAS FL recombinant (mouse, UniProt Q8C6L5 1-507); test: EMSA
# NLRX1 FL recombinant [3] = target: T4, NLRX1 FL recombinant (human, UniProt Q86UT6 1-975); test: EMSA
# NLRC3 FL recombinant [4] = target: T1, NLRC3 FL recombinant; test: pull-down
# NLRX1 FL recombinant [5] = target: T4, NLRX1 FL recombinant; test: pull-down
# NLRX1 FL recombinant [6] = target: T4, NLRX1 FL recombinant; test: SPR
# STING 155-341 [7] = target: T2, STING 155-341; test: gel filtration
# T4 sequence (Q86UT6 whole entry): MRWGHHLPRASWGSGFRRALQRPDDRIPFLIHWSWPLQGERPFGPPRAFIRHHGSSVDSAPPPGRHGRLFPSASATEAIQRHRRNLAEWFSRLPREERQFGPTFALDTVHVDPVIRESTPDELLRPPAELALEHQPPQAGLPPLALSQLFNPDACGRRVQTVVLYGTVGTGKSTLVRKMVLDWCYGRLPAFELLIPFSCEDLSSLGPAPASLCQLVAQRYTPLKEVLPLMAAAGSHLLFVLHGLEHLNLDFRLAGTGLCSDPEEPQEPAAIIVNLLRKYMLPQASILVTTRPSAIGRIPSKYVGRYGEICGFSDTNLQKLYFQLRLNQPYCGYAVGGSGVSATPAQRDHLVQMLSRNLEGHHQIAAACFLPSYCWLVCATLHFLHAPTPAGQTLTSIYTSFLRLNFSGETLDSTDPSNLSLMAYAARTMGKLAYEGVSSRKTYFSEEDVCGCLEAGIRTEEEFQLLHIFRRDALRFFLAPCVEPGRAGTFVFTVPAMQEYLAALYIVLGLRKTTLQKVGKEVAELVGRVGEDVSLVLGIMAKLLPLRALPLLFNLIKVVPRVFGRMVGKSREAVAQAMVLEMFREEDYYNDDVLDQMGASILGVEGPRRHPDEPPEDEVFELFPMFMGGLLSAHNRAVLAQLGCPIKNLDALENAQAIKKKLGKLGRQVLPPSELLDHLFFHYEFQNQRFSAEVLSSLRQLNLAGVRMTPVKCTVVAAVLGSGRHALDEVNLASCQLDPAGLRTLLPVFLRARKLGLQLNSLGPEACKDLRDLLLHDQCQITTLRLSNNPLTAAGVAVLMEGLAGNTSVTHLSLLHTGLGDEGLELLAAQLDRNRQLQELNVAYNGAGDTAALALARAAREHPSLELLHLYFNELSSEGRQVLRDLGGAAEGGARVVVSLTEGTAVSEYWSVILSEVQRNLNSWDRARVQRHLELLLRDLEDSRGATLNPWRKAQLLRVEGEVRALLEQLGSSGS
# T2 sequence (Q86WV6 155-341): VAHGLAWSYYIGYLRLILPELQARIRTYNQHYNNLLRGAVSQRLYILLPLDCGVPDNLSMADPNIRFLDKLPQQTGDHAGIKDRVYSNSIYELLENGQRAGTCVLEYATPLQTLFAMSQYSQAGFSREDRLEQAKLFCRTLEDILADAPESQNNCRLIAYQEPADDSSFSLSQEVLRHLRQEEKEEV
# cGAS FL recombinant, sequence (Q8C6L5 whole entry): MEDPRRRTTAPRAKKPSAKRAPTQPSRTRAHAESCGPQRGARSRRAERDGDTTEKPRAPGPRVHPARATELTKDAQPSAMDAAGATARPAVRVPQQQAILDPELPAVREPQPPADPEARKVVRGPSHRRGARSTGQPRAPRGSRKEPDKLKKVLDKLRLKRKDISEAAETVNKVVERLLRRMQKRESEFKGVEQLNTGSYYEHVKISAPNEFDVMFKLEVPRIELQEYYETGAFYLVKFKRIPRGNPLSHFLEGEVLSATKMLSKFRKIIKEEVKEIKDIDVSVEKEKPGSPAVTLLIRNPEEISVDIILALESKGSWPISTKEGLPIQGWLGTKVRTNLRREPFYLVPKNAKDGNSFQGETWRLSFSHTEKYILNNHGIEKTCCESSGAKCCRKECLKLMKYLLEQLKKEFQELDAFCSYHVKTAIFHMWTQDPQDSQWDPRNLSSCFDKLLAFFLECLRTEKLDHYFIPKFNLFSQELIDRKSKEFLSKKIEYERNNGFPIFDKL
binder,measurement,setting,value
B1,Kd,NLRC3 FL recombinant [1],3 nM
same,binding result,STING 155-341 [2],no binding
same,binding result,NLRC3 NBD recombinant,no binding
same,binding result,cGAS FL recombinant,binds
same,binding result,NLRX1 FL recombinant [3],no binding
B2,binding result,NLRC3 FL recombinant [4],binds
same,binding result,NLRX1 FL recombinant [5],no binding
B3,binding result,NLRC3 FL recombinant [1],binds
B4,binding result,NLRC3 FL recombinant [1],binds
B5,binding result,NLRX1 FL recombinant [6],binds
B6,binding result,STING 155-341 [7],no binding
